Experimental data taken from the supplement of paper PMC9732359.
± gives the uncertainty stated by the source.

Assay: protein stability index of a GFP-peptide fusion (yeast GPS) (PSI 1-4); higher = more stable; sorted into four equal gates, so the index is relative within each strain
Method in brief: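 The protein stability index of a peptide was calculated by multiplying its read frequency in each gate by that gate's number and adding the products. The peptides were tiled 17-residue stretches of yeast proteins, fused downstream of GFP on a Cherry-expressing plasmid and carried in yeast as a pooled library. Mid-log cultures in leucine-free medium were sorted into four equal gates by GFP/Cherry ratio, and each gate's plasmids were PCR-amplified and Illumina-sequenced.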

Sequence	protein stability index (doa10∆)	protein stability index (san1∆)	protein stability index (pdr5∆)	protein stability index (ubr1∆)
VGSEKVLQDLRLGSKKL [YJL039C/NUP192]	3.34 ± 0.13	3.38 ± 0.13		
VGSLVVKSSMGPAFRLY [RPL1A]	3.07 ± 0.059	3.14 ± 0.051	2.95 ± 0.055	2.73 ± 0.055
VGVHIADVTHFVKPGTA [DIS3]	2.51 ± 0.055	2.9 ± 0.052	2.14 ± 0.058	2.76 ± 0.063
VGVIGPLHSGKTSLMDL [SNU114]	2.97 ± 0.11	3.29 ± 0.19	2.68 ± 0.11	3.13 ± 0.07
VGVSHTNEEVRNMAEEF [CYT1]	2.85 ± 0.13	2.01 ± 0.13	2.35 ± 0.07	2.22 ± 0.043
VHPGANYLLKRNEDARR [RPO31]	3.21 ± 0.067	2.93 ± 0.077	3.14 ± 0.077	3.35 ± 0.038
VHRITDEEASYKLGKVK [RPS4A]	3.01 ± 0.087	2.98 ± 0.12	3.13 ± 0.13	3.07 ± 0.12
VIANPKGEMKGSAITGP [RPL23A]	3.19 ± 0.13	2.64 ± 0.14	3.22 ± 0.2	2.91 ± 0.23
VIEMKRCFENLQNKSFK [UBP6]	3.33 ± 0.15	3.1 ± 0.16	3.28 ± 0.2	3.13 ± 0.1
VIGLDSEHDKKRLSAAL [YML103C/NUP188]	3.5 ± 0.23	3.14 ± 0.13	3.69 ± 0.19	3.67 ± 0.14
VIKTLTVDVSSPTENGV [RPL22B]	2.3 ± 0.14	2.32 ± 0.13	2.55 ± 0.089	2.83 ± 0.064
VILGDANSSTIRVTNSF [RPN8]	3.01 ± 0.092	2.89 ± 0.066	2.94 ± 0.072	3.06 ± 0.052
VILQSDLEEAYATQVKT [RPT3]	2.2 ± 0.1	2.3 ± 0.083	2.57 ± 0.069	2.53 ± 0.068
VINIAKAHPNFPIALQW [FAS1]	2.82 ± 0.1	2.25 ± 0.091	2.88 ± 0.086	2.23 ± 0.076
VIQQDKYQKALHYLKKF [SRP72]	1.61 ± 0.098	1.2 ± 0.14	1.26 ± 0.079	2.15 ± 0.1
VITLAEYEKRNHGGSLG [SRP68]	3.42 ± 0.11	3.28 ± 0.074	3.06 ± 0.13	3.55 ± 0.14
VITNLFSAIPFVGNDIV [COB]	3.14 ± 0.05	3.14 ± 0.034	3.12 ± 0.053	3.13 ± 0.036
VIWSEDNDEKLIIRCRV [RPO21]	3.34 ± 0.15	3.53 ± 0.088	2.96 ± 0.19	2.84 ± 0.19
VKAQRPITGASLDLIKE [RPL24A]	2.42 ± 0.062	2.69 ± 0.074	2.07 ± 0.049	2.73 ± 0.05
VKDFTSLGFNEVFSRPE [RPO21]		2.96 ± 0.27	2.56 ± 0.27	2.9 ± 0.19
VKDKEEDHIFFKYIYEL [YDL116W/NUP84]	1.34 ± 0.07	1.16 ± 0.16	1.09 ± 0.093	1.06 ± 0.076
VKEMEPKQSDEYLKRVS [SIR3]	2.69 ± 0.056	3.05 ± 0.05	2.74 ± 0.057	2.54 ± 0.076
VKKQKSARGIETRPAQV [FAS2]	2.77 ± 0.1	3.1 ± 0.083	3 ± 0.094	3.09 ± 0.082
VKLKQQKVNAVDSTFQK [SMC3]		3.36 ± 0.15	2.9 ± 0.19	3.29 ± 0.062
VKLYGREGSSARTIKAT [RPB2]	2.47 ± 0.12	3.25 ± 0.088	3.36 ± 0.12	3.29 ± 0.19
